Source: paper PMC7060721

Molecular target: ENLARGED VESSEL ELEMENT (EVE) homolog of Physcomitrella patens (Physcomitrella patens)
Test: SEC-MALS

Question: For “ENLARGED VESSEL ELEMENT (EVE) homolog of Physcomitrella patens (natural protein)”, which stoichiometry N is on record?
Answer: Its stoichiometry N is 5.
